Paper doi:10.1101/2020.04.21.032086

Molecular target: LgBiT-tagged human CXCR4 receptor (UniProt P61073)
Assay: split reporter

B1: purified HiBiT-HaloTag fusion protein (peptide)
chain: VSGWRLFKKIS
B1 gave a koff of 0.00367 s⁻¹, a kon of 10000 M⁻¹ s⁻¹ and a pKD of 6.43.
